Here are results for 1 substance from PMC10248529.

Assay [1] concerns the target HAx3-tagged Cho1 (phosphatidylserine synthase from Candida albicans) (Candida albicans). The assay can be described thus: native gel or EMSA; BN-PAGE and anti-HA Western blot of SMA2000-solubilised membrane fractions (SMALPs), 1-4% SMA2000, 30 or 60 min, 37 °C.
Assay [2] has the same target. The assay can be described thus: native gel or EMSA; BN-PAGE and anti-HA Western blot of Cho1-HAx3 pulled down with anti-HA beads and eluted harshly: 50 mM NaOH + 0.05% digitonin, then 1 M Tris pH 8.5. On the technique in general: A gel shift assay detects complexes by their altered migration in electrophoresis.

Turning to “HAx3-tagged Cho1 (phosphatidylserine synthase from Candida albicans) (from UniProt A0A1D8PF32 1-273) (enzyme)”, the stoichiometry N in assay [1] and in assay [2] was 2 each time.

Usually stoichiometry N stands for the number of molecules, sites or subunits per partner or assembly.
